The text below walks through data of article PMC11539920 (Nature, 2024).

Where two headings read alike, the source gives them in different places.

The target in test [1] is T1, BRCA1–BARD1 complex (human, UniProt P38398 1-1863; Q99728 1-777). The test can be described thus: pull-down.
Test [2] has as its target BRCA1 (subunit of the purified BRCA1–BARD1 complex) (human, UniProt P38398 1-1863). The test can be described thus: mass photometry.
Test [3] deals with T1, BRCA1–BARD1 complex. In words: pull-down. This is another data set of the same source.

T1 sequence (P38398 whole entry, one chain of several): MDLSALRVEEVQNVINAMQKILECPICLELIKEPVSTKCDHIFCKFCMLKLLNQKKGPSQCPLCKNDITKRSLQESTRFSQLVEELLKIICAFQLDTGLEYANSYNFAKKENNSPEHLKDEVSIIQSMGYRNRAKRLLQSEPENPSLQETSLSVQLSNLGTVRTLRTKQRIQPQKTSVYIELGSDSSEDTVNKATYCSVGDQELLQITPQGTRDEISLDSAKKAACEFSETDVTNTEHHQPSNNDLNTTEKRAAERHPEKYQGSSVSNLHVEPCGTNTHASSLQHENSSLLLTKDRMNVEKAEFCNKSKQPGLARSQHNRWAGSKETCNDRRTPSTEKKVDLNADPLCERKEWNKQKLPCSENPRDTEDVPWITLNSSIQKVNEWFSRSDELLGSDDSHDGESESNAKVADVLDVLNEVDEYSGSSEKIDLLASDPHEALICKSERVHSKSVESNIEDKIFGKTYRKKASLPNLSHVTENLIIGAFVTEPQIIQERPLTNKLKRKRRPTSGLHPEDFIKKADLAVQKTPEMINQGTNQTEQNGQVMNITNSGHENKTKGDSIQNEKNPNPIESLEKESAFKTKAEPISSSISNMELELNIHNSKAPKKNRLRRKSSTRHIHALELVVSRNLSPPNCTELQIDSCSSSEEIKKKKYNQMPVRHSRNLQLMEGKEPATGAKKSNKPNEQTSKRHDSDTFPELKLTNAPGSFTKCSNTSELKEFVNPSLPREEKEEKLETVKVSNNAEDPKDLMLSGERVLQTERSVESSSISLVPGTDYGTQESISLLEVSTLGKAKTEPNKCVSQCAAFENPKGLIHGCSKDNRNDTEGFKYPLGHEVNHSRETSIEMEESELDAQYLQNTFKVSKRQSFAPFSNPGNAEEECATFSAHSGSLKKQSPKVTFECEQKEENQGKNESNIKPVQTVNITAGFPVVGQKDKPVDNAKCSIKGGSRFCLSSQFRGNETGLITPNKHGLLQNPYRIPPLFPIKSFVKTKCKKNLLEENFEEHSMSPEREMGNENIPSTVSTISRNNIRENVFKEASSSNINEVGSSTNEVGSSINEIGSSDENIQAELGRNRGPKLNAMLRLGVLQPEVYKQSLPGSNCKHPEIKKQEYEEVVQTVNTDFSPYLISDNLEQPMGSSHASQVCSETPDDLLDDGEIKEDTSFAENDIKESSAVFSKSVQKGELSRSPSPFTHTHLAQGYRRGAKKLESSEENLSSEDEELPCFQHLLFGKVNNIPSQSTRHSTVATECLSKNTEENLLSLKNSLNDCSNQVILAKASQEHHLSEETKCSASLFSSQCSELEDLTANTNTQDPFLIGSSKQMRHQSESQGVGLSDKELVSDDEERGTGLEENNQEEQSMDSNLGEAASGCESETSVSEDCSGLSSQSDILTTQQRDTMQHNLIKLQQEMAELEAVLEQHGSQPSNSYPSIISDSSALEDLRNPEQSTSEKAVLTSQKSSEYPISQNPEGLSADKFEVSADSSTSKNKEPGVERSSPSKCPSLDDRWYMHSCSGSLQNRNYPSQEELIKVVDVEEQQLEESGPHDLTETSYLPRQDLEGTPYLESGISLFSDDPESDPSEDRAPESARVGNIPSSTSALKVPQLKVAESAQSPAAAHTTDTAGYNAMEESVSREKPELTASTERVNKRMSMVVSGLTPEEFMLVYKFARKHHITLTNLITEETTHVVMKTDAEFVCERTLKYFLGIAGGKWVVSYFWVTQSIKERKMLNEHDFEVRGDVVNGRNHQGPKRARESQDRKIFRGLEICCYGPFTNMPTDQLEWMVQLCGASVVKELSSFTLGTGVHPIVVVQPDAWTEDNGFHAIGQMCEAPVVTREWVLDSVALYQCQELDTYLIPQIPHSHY
Sequence of BRCA1 (subunit of the purified BRCA1–BARD1 complex) (P38398 whole entry, one chain of several): as above

B1: GST-tagged BLM fragment, residues 636–1298 (domain or fragment)
chain: not shown
Turning to B1, the binding result in the test with BRCA1–BARD1 complex [1] is recorded as “binds”.

B2: BARD1 (subunit of the purified BRCA1–BARD1 complex) (natural protein, human, UniProt Q99728 1-777, looked up)
chain: MPDNRQPRNRQPRIRSGNEPRSAPAMEPDGRGAWAHSRAALDRLEKLLRCSRCTNILREPVCLGGCEHIFCSNCVSDCIGTGCPVCYTPAWIQDLKINRQLDSMIQLCSKLRNLLHDNELSDLKEDKPRKSLFNDAGNKKNSIKMWFSPRSKKVRYVVSKASVQTQPAIKKDASAQQDSYEFVSPSPPADVSERAKKASARSGKKQKKKTLAEINQKWNLEAEKEDGEFDSKEESKQKLVSFCSQPSVISSPQINGEIDLLASGSLTESECFGSLTEVSLPLAEQIESPDTKSRNEVVTPEKVCKNYLTSKKSLPLENNGKRGHHNRLSSPISKRCRTSILSTSGDFVKQTVPSENIPLPECSSPPSCKRKVGGTSGRKNSNMSDEFISLSPGTPPSTLSSSSYRRVMSSPSAMKLLPNMAVKRNHRGETLLHIASIKGDIPSVEYLLQNGSDPNVKDHAGWTPLHEACNHGHLKVVELLLQHKALVNTTGYQNDSPLHDAAKNGHVDIVKLLLSYGASRNAVNIFGLRPVDYTDDESMKSLLLLPEKNESSSASHCSVMNTGQRRDGPLVLIGSGLSSEQQKMLSELAVILKAKKYTEFDSTVTHVVVPGDAVQSTLKCMLGILNGCWILKFEWVKACLRRKVCEQEEKYEIPEGPRRSRLNREQLLPKLFDGCYFYLWGTFKHHPKDNLIKLVTAGGGQILSRKPKPDSDVTQTINTVAYHARPDSDQRFCTQYIIYEDLCNYHPERVRQGKVWKAPSSWFIDCVMSFELLPLDS
Turning to B2, the stoichiometry N (as a rule, the number of molecules, sites or subunits per partner or assembly) in test [2] worked out at 1.

B3: GST-tagged BLM fragment, residues 636–857 (domain or fragment)
chain: not shown
In the case of B3, in the test with BRCA1–BARD1 complex [1], the binding result is given as “binds”.

B4: GFP-WRN (enzyme)
chain: not shown
Take B4: the binding result with BRCA1–BARD1 complex [3] was “binds”.

B5: GST-tagged BLM fragment, residues 2–635 (domain or fragment, human, UniProt P54132 2-635, looked up)
chain: AAVPQNNLQEQLERHSARTLNNKLSLSKPKFSGFTFKKKTSSDNNVSVTNVSVAKTPVLRNKDVNVTEDFSFSEPLPNTTNQQRVKDFFKNAPAGQETQRGGSKSLLPDFLQTPKEVVCTTQNTPTVKKSRDTALKKLEFSSSPDSLSTINDWDDMDDFDTSETSKSFVTPPQSHFVRVSTAQKSKKGKRNFFKAQLYTTNTVKTDLPPPSSESEQIDLTEEQKDDSEWLSSDVICIDDGPIAEVHINEDAQESDSLKTHLEDERDNSEKKKNLEEAELHSTEKVPCIEFDDDDYDTDFVPPSPEEIISASSSSSKCLSTLKDLDTSDRKEDVLSTSKDLLSKPEKMSMQELNPETSTDCDARQISLQQQLIHVMEHICKLIDTIPDDKLKLLDCGNELLQQRNIRRKLLTEVDFNKSDASLLGSLWRYRPDSLDGPMEGDSCPTGNSMKELNFSHLPSNSVSPGDCLLTTTLGKTGFSATRKNLFERPLFNTHLQKSFVSSNWAETPRLGKKNESSYFPGNVLTSTAVKDQNKHTASINDLERETQPSYDIDNFDIDDFDDDDDWEDIMHNLAASKSSTAAYQPIKEGRPIKSVSERLSSAKTDCLPVSSTAQNINFSESIQNYTDKSAQNLA
On to B5, for which, in the test with BRCA1–BARD1 complex [1], the binding result is listed as “binds”.
